From the domain aggregation screens of Martell et al. (2025) come the findings set out here.

This series is described as follows: soluble fraction after stress (log2 fold change); higher = more stays soluble; pooled small domains, quantitative proteomics. The settings on record: stress: pH 4. The method in brief:
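How much of each domain stays soluble after acid stress, expressed as a fold change, is used to gauge aggregation propensity. Pooled custom libraries of small domains underwent pH 4 stress before high-throughput quantitative proteomics. A higher log2 value means more of the domain stayed soluble.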

In the case of “HMPVLDETVPAALDGERIDRVVALLADVSRNRAGIAIAAGSVRLDGAVVTQRSRKVRADEELVVDGLER”, the “soluble fraction (log2)” value was -0.00165. Under “HMPVNEEFKRLIDKIKYEFSINQAQISERLGVKSTYLSDMINGRVPYNESMQKKIHEVFHIG” stands 0.114; under “HMPVNGEFIERIKVMVLENKAKGKKERLTKTRMHQLLQEEGYKGSYSAFTHQVRIIEEELGVNQKEAH”, 0.235; under “HMPVSRMRARHEALARGVMGIHAGGFSAVYGYRKVWHGLIGKGWDPGEVGRDQVMNIMRGLGMQGVRR”, 0.22. The value for “HMPVSVAEQKQILAEALQERGHATFRELIENADNRMIVVGRFLALLELYRDGTVRFEQERALGELTIHWEE” was -1.22. The value for “HMPYIVNHIHLKSEDPKITADWFVKAFNFEIVSDVVRHFGDRFIVTKAEGGMTINISGVRDGEEL” was 0.262; that for “HMPYNNLADAPASWKKLDDTPLTLGQVNWIAKIYDALVAKGMEKGAAAGTAISRFKKSFKVADGKWVQV” was 0.173; that for “HMPYNRRYLISNADGALYTVEENGLVKLEETNLTAELFETRGMQDIPDGKLLITLHDPTILYWHDSENLFP” was -2.32. As for “HMPYSPTPGSAPARLIAHLQEHGDSVNRTAIAELLQVDRKNVHNYLARAVTHGLLLRHGGGAYSLP”, the “soluble fraction (log2)” value was determined as 0.207.

Turning to “HMQADEENPKYPVITDGVIQLEVLESIDKTEEWLVERLAKDGYNNVSEIFIAEYENGNLSIVT”, the “soluble fraction (log2)” value was -0.742. Under “HMQADPYTVLGVLRDVTDGELKREYRKLVREHHPDALIAQGVPQEFVDIANNKLAVINAAYERIAKQRGL” stands -0.293.

For “HMQAGILTDTAAKNARIKKIDTERLEAELDQKRIVIVTGFQGVDRNQNITTLGRGGSDTSAVALAAAVSIT”, the “soluble fraction (log2)” value came out at 0.0198. The value for “HMQAKDVEIPNFVGKTLAEANADNKDNFNFVVESKYDASKELGVILEQEPAADSKLVKSGSQITLKV” was 0.0557; that for “HMQALDNNDALEEIIKKVITENPSQVTEFRNGKDSLMNFLVGKVMAASGGKANPKTLPETIEKIIK” was 0.277. Under “HMQAMDYEGFKKEILKMSDIDLSLYKEKQMKRRIDSLIRKNGYEHYEDYVQALKQDSGLYNEFINYLTI” stands -1.33; under “HMQANLPFSELLADVDRGLISDVTIKGDQVSGHYTDGRTFNTFIPPEADLVRRLTEKNVRIAAVPD”, -0.00341; under “HMQAPAFDYSKVQEGVTVNHKIFGDGTVSWIDKARKYIRVQFSVGEKMFTMETAFVQGFLSL”, -1.03. Under “HMQAPVDPIVLGKMGSSYGIRGWLRVFSSTEDAESIFDYQPWFIQKAGQWQQVQLESWKHHNQDMIIKLN” stands 0.179. Regarding “HMQARLPFSFAKRHGVILLAATGEGQSDVIYKSGFDIGALAEVRRFVAGEIALKEVDGPSFDRQLTLTYQN”, the “soluble fraction (log2)” value was -1.34.

As for “HMQARSQQTIQTLFKAAAQILDKEGEAGLSTNKVAAAAGFSIGTLYQYFPSKEVLIQAMAAR”, the “soluble fraction (log2)” value is 0.0662. Consider “HMQASISVDEAKSIALNYAKFTADQVVYTKSELDYDDGRAEYEIEFYAGGKEYSFTIDAVSGTVLEMEI”, for which the “soluble fraction (log2)” value was 0.107.

“HMQATDEEIENFTSSAITAYKLTKEEGYIISMRDMKPIMEIVKTEYPMANGKVVSKVMNNYING”: the “soluble fraction (log2)” value was determined as 0.22. The value for “HMQDELSSSVIEEAVVVLLLRAANIDGKKDEQEIEAIKRLIIQQFNYDEEKADILITSASEK” was -0.191; that for “HMQDGTILPGQKTAIRSLATSGGYDSQDLDTYLATTYGKSIDGLTRTEGADVIKAFQAGTVAK” was 0.165.

In the case of “HMQDLEIKINLGMTYYEVREAIGSPDIIDKINQYGRDFQMWTYYIDDKTKRYYFEDHLLTKI”, the “soluble fraction (log2)” value was -1.65. The value for “HMQDLPPIHLSRGMTDYTLVRSRRRTLSMELKRDGTVVVHAPLRLGVEKIDAFVAAHEAWLARARTRQAER” was 0.196; that for “HMQDNPELVARIEKAAARGTSSMSDWERSFMGSLLDSAKKWGRLTAKQHEVFQRIEKKTDPAHQAAVS” was 0.0292; that for “HMQDPRITRTRGLILQAFDALLVEKGFHALSVQAIAGRAGINRATFYAHFADKYALLDTSIQE” was 0.081.

Take “HMQDREKNIAEGRDIIEHEFMRLGISLSRYDLDGLASKLNVKAGDDVLAGVGAGDIRVSQIISQLG”: the “soluble fraction (log2)” value is -0.747. Under “HMQDTVKNVFGAFTIFTDKPFAIGDTINVNGLEGTVVDVGMRSTQILGYDRRITSYPNYKITDSSIVNISS” stands -0.636; under “HMQDVVFTVDKDQTGAEIGDMLYEKGIISSPTTFRLALRLTGSMDKLQQGYYQIPQNASLRQVIALLQKG”, -0.522.

Consider “HMQDYYTQSDFARYLEDKGIHFPQNKIAVYRKRGKFPKEDLVVAGTPYWSKYTVESFAKHLLEQQN”, for which the “soluble fraction (log2)” value was determined as 0.302. The value for “HMQEAATSLNAKILAKLRENNGTLAVSDKSDPALISSLFGVSKGNFKKAIGALYKNGQIVIHADRIEL” was 0.00478; that for “HMQEDQKTSIFDIEGVEKGVASVLSSIKVEIVSDLLEADMDDILKSGKISEDDLDGVYEAVQNFVER” was -1.28; that for “HMQELNDQQRLAILNEWNNRATNPPSLLELVRVAFPDAEGADGRSWHGKKVKEFLSTRQIKARAS” was -0.282. The value for “HMQENFYMILESEERRVLDVLVADQPESVATFLKLVSPFPNYKIILEHINEKALDFYEETVI” was -0.666; that for “HMQESTILPAQKSAISSLATSAGFSSENLKRYLLQNYGVDLKDLTRSQGAEVIKAFQSGNVSKP” was 0.246.

Turning to “HMQETPAMLAMKELPTEDEQRIYMMLQEDYDSVLLVKTIRNAFSQNPQLTRQQLLPIILTWLMT”, the “soluble fraction (log2)” value is -1.08.

As to “HMQGATVYIKSDDIGKTTNEQGSFNFDKLKKNRYTLEISFIGYETKNLQAYTDRENIVQLNRKS”, the “soluble fraction (log2)” value was -0.527. The value for “HMQGEVPYSQFLTEVDRGDVQSVVIEGNNISGFYKNSSTAFTVVAPDDPKLVERLMEQGVEVKARPV” was at least 0.43; that for “HMQGEVVTNRSVIDMSRAGLSADIIRAKILRSDTNFDVTAKALIELKESGVPDDIIALMLERADS” was -0.218; that for “HMQGIPVTVTAERANLRSGPGTSFDKLGQVVQGDVLTLLEVQNDWYKVKTAEGKTAFVAAYLVNSP” was 0.0179. Under “HMQGQADFTQGIANFTQYPVGSRITVFTLEGRRVAVVEIGKDGTAQLDMRNKPAGVYIVNTGKQSFKWLK” stands -0.0678; under “HMQGRIYLNPDLAEKLRAQYAAYPHWSYLLHTENLGALVRKTESLGPMPSYSTILRYMHANDMRKRNKP”, -0.149; under “HMQGVNLTETEKNFIAQVLSPLLKQGQSLYQIRTNHPEIKLSVKTLYTYIESGIFKESGINNFSLRRQ”, -0.319.

As for “HMQILNVFSKHGIKPISPQIGDKFDPQLHEAMFEAPVPGTKAGDIIEVSSEGFMLYDRLLRPAHVGVSSN”, the “soluble fraction (log2)” value was -0.138.

For “HMQILPAFLPENPELRARLANHSLEELTEILKQYKTLHNSTDVDTVKRAIRAIEIEEYYAVHPV”, the “soluble fraction (log2)” value is -0.635. The value for “HMQINLKQSSDEELVKIITVQVHHYEPHTVKAAEAEIERRGIDKMRMAHLVKKVAQENTAVQEIQD” was 0.134. The value for “HMQISDDSELIKIVDNILANSQKQIDDYHNGKTNLFGFFVGQVMKETKGKANPVKVNEILKDKL” was 0.102; that for “HMQISDSSLIAKTVATVILENPEAVSDYLGGKHSVVRFMVGQIMKKTQGKANPKMATEMLETALNDL” was 0.352; that for “HMQISDTTELSTLITKVLSEQSDALVDFKNPKKQKQVIGYLTGQVLRASQGKANPGLVRSLLEEQLSALDS” was 0.0677. The value for “HMQISMQNIASVKIDDLSDEQIQEFSTKYTAAGYSFPDVENVAKQKGMPSSEIEKLRQRVLTAQNTQEK” was -0.346. Turning to “HMQISSSEVLEKVVDEILSANPKSIEDYKNGKLQAAGFLMGQVMKATKGQANPAVAKELIEAKLKD”, the “soluble fraction (log2)” value amounted to 0.124. Under “HMQISYDVPNLIGKSYEEVMTDPSILGEHFTVVLGETKTDEDTDAGVILHQDPAADSKVQDEVTPITVTVS” stands 0.0589; under “HMQITDTEAIATTLDEIIAANPKEWERLKAGQEQLVKFFVGQVMRVTKGRANPQVVNDLLKERL”, 0.186. On to “HMQITNEGQIKLVISEVLNENQEQKKQYLSGKEQVLGYLIGKVMQKTKGKANPKLVNDLMIKELS”, for which the “soluble fraction (log2)” value was 0.217. The value for “HMQITSTDEIEKMIDELIAANPEQTKQYQNGNHKVAGWFVGQMMKASKGKANPQMVNNLLQKKL” was 0.166. “HMQITTVSPKNYAEAELIGQRFREGNPVVMDLSKLDSDLGQRLVDFASGLVFALNGTVERIAKKVFLLSP”: the “soluble fraction (log2)” value was -0.748. Consider “HMQIVHKHLQLQPDQGALRAALYSHKAVVAEQVNEQGAINLEIKLAESDFLRLLKSSGLKLQDLVSLS”, for which the “soluble fraction (log2)” value was -1.16. Under “HMQKAQEYILVDIKGEVQTPGVYKLPVNSRVIDAIEASGGLTKKAVTTYINLSKTLKDENVIIINKKSEL” stands -0.0717; under “HMQKITPDNWTYIRSLIRQKWSPDQIDQWLKKHPDVGFTVSRETIYQYVKEDRQKDGDLYLSLRRAGKSY”, -1.11; under “HMQKLKINKYKDPKGEIRYYIASTIRNGNKSSTHNLLSLGKHSDLLKEHSDVEAYLKERLNEAMESGI”, 0.307.

Consider “HMQKPDIEVDFAEGDMVVVTGGAWKDTAGVITGINMQKQTVTINVELFGRETPVEISFTEIKKA”, for which the “soluble fraction (log2)” value is -0.799.

Consider “HMQKVPDAFKAEQVQTLITRLGVSRAELARTLDVSLSTVNKWASGAVEPKGSALVLLKVLWMHGFKAL”, for which the “soluble fraction (log2)” value is 0.03.

Take “HMQLDDDQKEELILKLIDSLDTTKKGAPLTELAREAAKSNIGESELEEITTSLLDKGLVYEPTIGKMKR”: the “soluble fraction (log2)” value came to 0.0111. The value for “HMQLDLNENEKIIFEILQNNKTMQLSNLKTQTELSNKGWDKAIKSLTKQGLAKVSKIDNELIVEFL” was -0.723; that for “HMQLKFTDLRKEILRMIWEGHGPQKAYDLLNKLQQTNPSAKPATVYRALDFLIGNGFIHKVASLNAFVG” was -0.942; that for “HMQLKKDTILSYIEEKLIDSYNSNKGFTTQEISVALNMQRTNVSAILNNLVKENKLVKTKGKPVRYFLSG” was -1.02. The value for “HMQLTPAQHAILAHALEHSDGKIVWFPDNIKGGARKKVLDGLLNRALITTDGTDWFVAAEGYDAMGR” was 0.063.
